# Assay results reported in FireProtDB (doi:10.1093/protein/7.9.1089).
# Where “and” joins values, the source holds several entries; their conditions need not be identical. Identical values can stand only once.
# Conditions: Bacillus amyloliquefaciens, pH 4.4, Thermal, DSC, Sodium acetate/Acetic acid 6.08 mM/13.92 mM/, reversible: yes (>95%), whole UniProt chain shown
protein,measurement,setting,value
"Ribonuclease wild type, P00648 (protein) MMKMEGIALKKRLSWISVCLLVLVSAAGMLFSTAAKTETSSHKAHTEAQVINTFDGVADYLQTYHKLPDNYITKSEAQALGWVASKGNLADVAPGKSIGGDIFSNREGKLPGKSGRTWREADINYTSGFRNSDRILYSSDWLIYKTTDHYQTFTKIR",heat capacity change of unfolding,25 °C,1.6 kcal/mol/K
same,unfolding free energy,25 °C,8.69 kcal/mol and 8.66 kcal/mol
same,Tm,,51.5 °C and 51.6 °C
same,unfolding enthalpy (calorimetric),,128 kcal/mol
same,unfolding enthalpy (van 't Hoff),,128 kcal/mol and 129 kcal/mol
